Measured values from publication PMC8633780.

Biological target: EstN7, cold active family IV (hormone sensitive lipase family) esterase from Bacillus cohnii strain N1 (Bacillus cohnii strain N1)
Experiment: SEC; size exclusion chromatography of purified EstN7 in solution (supplementary figure S1)

Substance: EstN7, cold active family IV (hormone sensitive lipase family) esterase from Bacillus cohnii strain N1 (enzyme)
- stoichiometry N: 2
